From PMC7913698, “RPA complexes in Caenorhabditis elegans meiosis; unique roles in replication, meiotic recombination and apoptosis” (Nucleic Acids Research, 2021) come the findings set out here.

Common to all, as to assay: single-molecule pull-down (SiMPull, TIRF microscopy); whole worm lysate of the triple-tagged strain; biotinylated antibody against the tag of one subunit (anti-OLLAS, anti-FLAG or anti-MYC) tethered to the neutravidin surface captures complexes; Cy3- and Cy5-labelled antibodies against the tags detect the subunits; track counts after wash, summed over fields of view; controls: Pre-Ab and untagged wild-type lysate

The target of one data set is MYC::RPA-4 (C. elegans).
In data set [1] the target is OLLAS::RPA-1 (C. elegans) (UniProt Q19537).
The target of data set [2] is 3XFLAG::RPA-2 (C. elegans) (UniProt Q95Y97).
Data set [3] concerns the molecule itself.

MYC::RPA-4 (natural protein): the pulldown counts with MYC::RPA-4 (C. elegans) came out at 2300 counts; in data set [1] it was 1810 counts; in data set [2], 206 counts.

B1: OLLAS::RPA-1 (natural protein, C. elegans, UniProt Q19537 1-655, looked up)
chain: MAAIHINHDVFNKYHTNGKLRLTTGYVQEAIENNGYPGHDGIVQVLKGKVEQGEQLGHAFTFRIRISDGVFQYNALMSADIDDQIKREVEHLVEGTIIALTKFEIYDQGEGAKNCFLIKGYKILSRYHQVLTSPEVKPRSHSGKPDEHKGYRPNIIIEDVWPEAEGMAADYQENMANPPAAKAPKREFGEEASYNRAAAPEATRARAVPPPARRTASNTERGVMPIAMVTPYVSNFKIHGMVSRKEEIRTFPAKNTKVFNFEITDSNGDTIRCTAFNEVAESLYTTITENLSYYLSGGSVKQANKKFNNTGHDYEITLRSDSIIEAGGELLAAPKLILKRVKLGEIAGYAGQLIDVLVVVEKMDPEATEFTSKAGKSLIKREMELIDESGALVRLTLWGDEATKALVDDYVQKVIAFKGVIPREFNGGFSLGTGSATRIISVPEIAGVSELYDWYANVKPTTEVKMMSQAAGGSNEAPRTIAGLQEMQFGKDSDKGDYATVKAMITRVNPTNALYRGCASEGCQKKLVGENGDYRCEKCNKNMNKFKWLYMMQFELSDETGQVYVTAFGDSAAKIVGKSAAELGELHDESPDEYNAIFERLQFVPKMWRLRCKMDSYNEEVRQKMTVYGVDDVNQDKYIENLKQMIEQMQQMSDY
notes: also called OLLAS-tagged RPA-1; CeRPA large subunit; source: endogenous locus tagged by CRISPR/Cas9, C. elegans whole worm lysate; not shown: OLLAS, N-terminal, kept
In the case of B1, the pulldown counts in data set [3] is 1060 counts; in the data set with MYC::RPA-4 (C. elegans), 100 counts.

B2: 3XFLAG::RPA-2 (natural protein, C. elegans, UniProt Q95Y97 1-288, looked up)
chain: MWNETVEHENAGNGWAAGESSFMTDRKPDSKATTLGERLPVPVTISNLIEHFSAQDDKYVVGTFRFATVLTVGIVKDISQDGTTYTYDLCDPNNTEMEYRTLKYDNEGSTFDHSSIVEGTRVRAIGKLKGFDGNNTIMLFNITPVEDDKDFTIFELEAEAARLFFQKNVSEKLKSVDSDGFQGMLAPPKSRMSQTSHQSSQGSDTKERLYAQPQKVMTGANQGDVLRERITAVLMAVPEGSRDEGRHVSWIAEQIQETNISIVRKCVGEMVENGLVYTTVDEETVSAI
notes: also called 3XFLAG-tagged RPA-2; source: endogenous locus tagged by CRISPR/Cas9, C. elegans whole worm lysate; not shown: 3xFLAG, N-terminal, kept
For B2, the pulldown counts in data set [3] is 724 counts.
